{
  "source": "patent KR20140085790A",
  "about": "(dated 2014)",
  "binders": {"B1": {"name": "인간 단일클론항체 mh2F (항 DLL4 항체) (antibody, V domains shown)", "VH": "QVQLVQSGAEVKKPGASVKVSCKASGYTFTSYYLHWVRQAPGQGLEWMGIINPSGGSTSFAQKFQGRVTMTRDTSTSTVYMELSSLRSEDTAVYYCARDSAGGTLDVWGQGTMITVSS", "VL": "SYELTQPPSVSVAPGKTARITCGGNKIGNKGVHWYQQKPGQAPVLVIYYDKDRPSGIPERFSGSNSGNTATLTISRVEAGDEADYYCQVWDRSTVIFGGGTKLTVLG", "notes": "Isolated from a human scFv phage library; In ELISA it was detected with an HRP-conjugated anti-Fab reagent; also called anti-DLL4 antibody"}},
  "key": {"[1]": {"molecular_target": "T1, 인간 DLL4 단백질 세포외 도메인 (R&D Systems Cat: 1506-D4/CF) (human, UniProt Q9NR61 27-529)", "T1 construct": "extracellular domain; Bought protein; also called hDLL4-His; human DLL4; not shown: His tag (hDLL4-His)", "T1 sequence (Q9NR61 27-529)": "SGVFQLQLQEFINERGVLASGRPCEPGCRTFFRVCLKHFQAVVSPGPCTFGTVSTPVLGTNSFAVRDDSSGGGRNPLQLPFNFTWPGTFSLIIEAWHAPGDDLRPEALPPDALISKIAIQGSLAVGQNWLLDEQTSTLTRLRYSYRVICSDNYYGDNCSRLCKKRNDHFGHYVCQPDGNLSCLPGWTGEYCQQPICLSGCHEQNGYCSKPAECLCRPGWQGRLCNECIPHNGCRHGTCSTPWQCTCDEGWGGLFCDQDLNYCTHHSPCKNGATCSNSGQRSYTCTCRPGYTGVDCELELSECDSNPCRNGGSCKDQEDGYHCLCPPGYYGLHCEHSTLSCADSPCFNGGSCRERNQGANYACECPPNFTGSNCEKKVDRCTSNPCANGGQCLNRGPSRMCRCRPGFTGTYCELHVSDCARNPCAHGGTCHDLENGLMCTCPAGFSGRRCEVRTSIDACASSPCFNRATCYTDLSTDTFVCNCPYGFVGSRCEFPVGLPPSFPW", "experiment": "SPR (BIACORE T200), DLL4 coated on the chip, antibody injected"}, "[2]": {"molecular_target": "T1, 인간 DLL4 단백질 세포외 도메인 (R&D Systems Cat: …)", "experiment": "competition ELISA: antibody (2 pM-35 nM) premixed with DLL4 antigen (800 ng/ml), added to coated hNotch-1-hFc; bound DLL4 detected with an HRP anti-His reagent"}},
  "data": [
    {"binder": "B1", "values": [
      {"measurement": "Kd", "setting": "[1]", "result": 5.27, "unit": "nM"},
      {"measurement": "IC50", "setting": "[2]", "result": 1.03, "unit": "nM"}
    ]}
  ]
}
